Measurements taken from patent publication US20250171542A1 (ADEPT THERAPEUTICS, published 2025).

Legend:
[1] = biological target: T1, rat PD-L1 (Sino Biological, Cat #80450-R08H) (rat, UniProt D4AE25 19-239); assay: ELISA
T1 construct: not shown: The vendor's polyhistidine tag

[2] = biological target: T2, canine PD-L1 (Acro Biosystems, Cat #PDL-C52H4) (canine, UniProt E2RKZ5 19-236); assay: ELISA
T2 construct: not shown: The vendor's tag, probably a polyhistidine tag
T2 sequence: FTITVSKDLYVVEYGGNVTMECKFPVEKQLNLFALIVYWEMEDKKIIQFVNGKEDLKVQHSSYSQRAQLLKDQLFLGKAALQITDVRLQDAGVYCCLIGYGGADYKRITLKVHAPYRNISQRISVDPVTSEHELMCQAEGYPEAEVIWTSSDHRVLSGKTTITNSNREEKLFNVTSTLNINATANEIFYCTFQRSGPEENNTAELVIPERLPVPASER

[3] = biological target: T3, CD80 (Sino Biological, Cat #10698-H08H) (UniProt P33681 35-242); assay: ELISA
T3 sequence (looked up): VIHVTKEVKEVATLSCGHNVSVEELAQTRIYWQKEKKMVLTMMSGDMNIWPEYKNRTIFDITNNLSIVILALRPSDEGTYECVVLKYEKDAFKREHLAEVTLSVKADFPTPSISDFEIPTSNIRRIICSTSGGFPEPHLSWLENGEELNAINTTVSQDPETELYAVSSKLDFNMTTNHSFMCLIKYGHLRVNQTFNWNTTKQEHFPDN

[4] = biological target: T4, CD86 (Sino Biological, Cat #10699-H08H) (UniProt P42081 24-245); assay: ELISA
T4 sequence (looked up): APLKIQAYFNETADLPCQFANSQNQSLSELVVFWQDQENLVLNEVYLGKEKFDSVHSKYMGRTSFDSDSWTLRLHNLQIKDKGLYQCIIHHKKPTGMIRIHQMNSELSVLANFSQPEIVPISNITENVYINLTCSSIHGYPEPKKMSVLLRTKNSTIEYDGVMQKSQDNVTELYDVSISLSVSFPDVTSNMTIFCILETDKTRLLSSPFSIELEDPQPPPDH

[5] = biological target: T5, BH-H2 (Sino Biological, Cat #11559-H08H) (UniProt O75144 19-258); assay: ELISA
T5 sequence (looked up): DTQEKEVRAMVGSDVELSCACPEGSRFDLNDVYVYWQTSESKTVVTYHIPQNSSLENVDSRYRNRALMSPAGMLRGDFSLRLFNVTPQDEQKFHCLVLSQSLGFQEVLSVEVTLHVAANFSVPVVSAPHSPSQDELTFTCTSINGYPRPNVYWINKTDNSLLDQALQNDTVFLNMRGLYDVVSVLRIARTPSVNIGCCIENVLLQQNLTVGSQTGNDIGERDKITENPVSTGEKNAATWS

[6] = biological target: T6, B7-H3 (Sino Biological, Cat #11188-H08H) (UniProt Q5ZPR3 29-461); assay: ELISA
T6 sequence (looked up): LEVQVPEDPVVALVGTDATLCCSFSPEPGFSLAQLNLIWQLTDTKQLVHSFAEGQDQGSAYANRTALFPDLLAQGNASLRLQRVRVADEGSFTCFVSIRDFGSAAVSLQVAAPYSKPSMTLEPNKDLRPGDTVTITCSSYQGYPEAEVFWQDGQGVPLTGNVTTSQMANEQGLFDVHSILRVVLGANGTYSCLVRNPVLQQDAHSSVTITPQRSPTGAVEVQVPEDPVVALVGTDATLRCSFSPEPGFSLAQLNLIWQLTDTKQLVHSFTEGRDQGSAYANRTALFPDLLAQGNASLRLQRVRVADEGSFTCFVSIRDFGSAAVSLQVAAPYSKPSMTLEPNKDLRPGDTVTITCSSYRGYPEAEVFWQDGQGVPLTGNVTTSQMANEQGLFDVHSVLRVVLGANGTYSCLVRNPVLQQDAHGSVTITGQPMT

[7] = biological target: T7, PD-L2 (Sino Biological, Cat #10292-H08H) (UniProt Q9BQ51 20-219); assay: ELISA
T7 sequence (looked up): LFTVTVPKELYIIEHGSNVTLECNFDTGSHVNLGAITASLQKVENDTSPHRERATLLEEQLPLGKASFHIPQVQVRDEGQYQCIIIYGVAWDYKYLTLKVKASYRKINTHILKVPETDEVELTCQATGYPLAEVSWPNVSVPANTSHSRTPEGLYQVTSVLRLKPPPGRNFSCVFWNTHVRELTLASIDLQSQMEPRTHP

[8] = biological target: human PD-L1 expressed on cell surface (human, UniProt Q9NZQ7 19-290); assay: cell-based or functional assay
Sequence of human PD-L1 expressed on cell surface (Q9NZQ7 19-290 limits assumed): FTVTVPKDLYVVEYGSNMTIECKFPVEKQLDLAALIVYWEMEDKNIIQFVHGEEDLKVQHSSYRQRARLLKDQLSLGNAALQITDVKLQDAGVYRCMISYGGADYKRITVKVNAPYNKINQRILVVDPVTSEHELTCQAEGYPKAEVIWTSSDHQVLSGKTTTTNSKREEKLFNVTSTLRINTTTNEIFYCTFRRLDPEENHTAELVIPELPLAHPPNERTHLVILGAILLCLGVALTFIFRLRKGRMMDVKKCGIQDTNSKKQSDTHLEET

[9] = biological target: T8, human PD-L1-His (Sino Biological, Cat #10084-H08H) (human, UniProt Q9NZQ7 19-238); assay: ELISA, coated human PD-L1-His
T8 construct: Bought protein; also called human PD-L1 ECD-His; recombinant human PD-L1-His protein; not shown: His tag
T8 sequence (Q9NZQ7 19-238): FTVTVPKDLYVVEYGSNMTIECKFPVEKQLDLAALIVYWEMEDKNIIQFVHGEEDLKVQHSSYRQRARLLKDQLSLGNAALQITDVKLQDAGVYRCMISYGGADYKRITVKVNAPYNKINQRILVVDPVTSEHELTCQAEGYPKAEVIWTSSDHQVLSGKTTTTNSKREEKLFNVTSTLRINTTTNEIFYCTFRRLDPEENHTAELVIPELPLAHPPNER
Summary of the method: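 Plates coated overnight at 4 °C with 0.5 μg/ml His-tagged human or cynomolgus PD-L1, then BSA-blocked. Serially diluted antibodies bound 2 h at RT, detected with HRP secondary (1 h) and TMB, read at 450 nm after acid stop; anti-HEL isotype as negative control.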

[10] = biological target: T9, cynomolgus PD-L1-His (Sino Biological, Cat. 90251-C08H) (cynomolgus, UniProt Q9NZQ7 19-238 (human entry)); assay: BLI (Gator), cynomolgus PD-L1
T9 construct: Bought protein; also called Cyno PD-L1; Cynomolgus PD-L1 ECD-His; not shown: His tag
T9 sequence (Q9NZQ7 other isoform, or with tags, fused parts or gaps C08H C08H limits assumed): as the sequence (Q9NZQ7 19-238) above, with A33T, A34S, S62N, R68Q, Q82R, F173L, T185A, T192I, H215L counted along it

T1 sequence (D4AE25 entry or part of it R08H R08H limits assumed): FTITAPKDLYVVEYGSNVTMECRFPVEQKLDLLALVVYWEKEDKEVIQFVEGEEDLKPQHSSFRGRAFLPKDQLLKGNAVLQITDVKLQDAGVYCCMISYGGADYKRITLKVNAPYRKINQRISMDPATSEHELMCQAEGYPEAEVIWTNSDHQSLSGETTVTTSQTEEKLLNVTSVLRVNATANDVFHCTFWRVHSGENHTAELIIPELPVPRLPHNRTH

- binding result [1]: no binding
- binding result [2]: no binding
- binding result [3]: no binding
- binding result [4]: no binding
- binding result [5]: no binding
- binding result [6]: no binding
- binding result [7]: no binding
- Internalization (%), FACS, 0.25 µg/ml, 2 h [8]: 15.2%
- Internalization (%), FACS, 0.25 µg/ml, 4 h [8]: 12.3%
- Internalization (%), FACS, 0.5 µg/ml, 2 h [8]: 17%
- Internalization (%), FACS, 0.5 µg/ml, 4 h [8]: 14.2%
- Internalization (%), FACS, 1 µg/ml, 2 h [8]: 14.4%
- Internalization (%), FACS, 1 µg/ml, 4 h [8]: 12.4%
- Internalization (%), FACS, 2 µg/ml, 2 h [8]: 17.8%
- Internalization (%), FACS, 2 µg/ml, 4 h [8]: 12.6%
- EC50 [9]: 0.0171 nM
- Kd [10]: 0.23 nM
- koff [10]: 8.1e-05 s⁻¹
- kon [10]: 350000 M⁻¹ s⁻¹
B1: 33H7 (antibody, human IgG1, V domains shown)
VH: QEQLVESGGGLVQPEGSLTVTCTASGFDLSRYFYMSWVRQAPGKGLEWIASISTGSDITDYASWAKGRFTISKTSSTTVTLQMTTLTAADTAIYFCARWTSGGGGFGLWGPGTLVTVSS
VL: QVLTQTASPVSAAVGGTVTLNCQSSQSIYNNYLSWYQQRAGQPPKLLIYSTATLASGVPSRFKGSGSGTQFTLTISEIQCEDAATYYCQGYYSGYIWTFGGGTEVVVK
